The values below come from PMC6599887, “Exploration of the TRIM Fold of MuRF1 Using EPR Reveals a Canonical Antiparallel Structure and Extended COS-Box” (Journal of Molecular Biology, 2019).

First the molecules themselves.
B1: MuRF1-HD E222C (cysteine-null background), MTSSL-labelled (domain or fragment, UniProt Q969Q1 155-328, looked up)
chain: EVAPLQSVFQGQKTELNNSISMLVAGNDRVQTIITQLEDSRRVTKENSHQVKEELSQKFDTLYAILDCKKSELLQRITQEQEKKLSFIEALIQQYQEQLDKSTKLVETAIQSLDEPGGATFLLTAKQLIKSIVEASKGSQLGKTEQGFENMDFFTLDLEHIADALRAIDFGTDE
modifications: MTSSL spin label (R1) on cysteine 222
notes: MuRF1 (TRIM63) helical domain, residues 155-328 of UniProtKB Q969Q1; also called E222R1; not shown: His6, N-terminal, cleaved; SUMO, N-terminal, cleaved
B2: MuRF1-HD K297C (cysteine-null background), MTSSL-labelled (domain or fragment, UniProt Q969Q1 155-328, looked up)
chain: EVAPLQSVFQGQKTELNNSISMLVAGNDRVQTIITQLEDSRRVTKENSHQVKEELSQKFDTLYAILDEKKSELLQRITQEQEKKLSFIEALIQQYQEQLDKSTKLVETAIQSLDEPGGATFLLTAKQLIKSIVEASKGSQLGCTEQGFENMDFFTLDLEHIADALRAIDFGTDE
modifications: MTSSL spin label (R1) on cysteine 297
notes: MuRF1 (TRIM63) helical domain, residues 155-328 of UniProtKB Q969Q1; also called K297R1; not shown: His6, N-terminal, cleaved; SUMO, N-terminal, cleaved
B3: MuRF1-HD doubly labelled at E192R1 and R320R1 (cysteine-null background) (domain or fragment, UniProt Q969Q1 155-328, looked up)
chain: EVAPLQSVFQGQKTELNNSISMLVAGNDRVQTIITQLCDSRRVTKENSHQVKEELSQKFDTLYAILDEKKSELLQRITQEQEKKLSFIEALIQQYQEQLDKSTKLVETAIQSLDEPGGATFLLTAKQLIKSIVEASKGSQLGKTEQGFENMDFFTLDLEHIADALCAIDFGTDE
modifications: MTSSL spin label (R1) on cysteines 192 and 320
notes: MuRF1 (TRIM63) helical domain, residues 155-328 of UniProtKB Q969Q1; The double mutant is told only as labels placed at E192R1 and R320R1 simultaneously; the cysteine-null background follows from the methods; also called double-labeled sample; not shown: His6, N-terminal, cleaved; SUMO, N-terminal, cleaved
B4: MuRF1-HD E313C (cysteine-null background), MTSSL-labelled (domain or fragment, UniProt Q969Q1 155-328, looked up)
chain: EVAPLQSVFQGQKTELNNSISMLVAGNDRVQTIITQLEDSRRVTKENSHQVKEELSQKFDTLYAILDEKKSELLQRITQEQEKKLSFIEALIQQYQEQLDKSTKLVETAIQSLDEPGGATFLLTAKQLIKSIVEASKGSQLGKTEQGFENMDFFTLDLCHIADALRAIDFGTDE
modifications: MTSSL spin label (R1) on cysteine 313
notes: MuRF1 (TRIM63) helical domain, residues 155-328 of UniProtKB Q969Q1; also called E313R1; not shown: His6, N-terminal, cleaved; SUMO, N-terminal, cleaved
B5: MuRF1-HD E200C (cysteine-null background), MTSSL-labelled (domain or fragment, UniProt Q969Q1 155-328, looked up)
chain: EVAPLQSVFQGQKTELNNSISMLVAGNDRVQTIITQLEDSRRVTKCNSHQVKEELSQKFDTLYAILDEKKSELLQRITQEQEKKLSFIEALIQQYQEQLDKSTKLVETAIQSLDEPGGATFLLTAKQLIKSIVEASKGSQLGKTEQGFENMDFFTLDLEHIADALRAIDFGTDE
modifications: MTSSL spin label (R1) on cysteine 200
notes: MuRF1 (TRIM63) helical domain, residues 155-328 of UniProtKB Q969Q1; also called E200R1; not shown: His6, N-terminal, cleaved; SUMO, N-terminal, cleaved
B6: MuRF1-HD E192C (cysteine-null background), MTSSL-labelled (domain or fragment, UniProt Q969Q1 155-328, looked up)
chain: EVAPLQSVFQGQKTELNNSISMLVAGNDRVQTIITQLCDSRRVTKENSHQVKEELSQKFDTLYAILDEKKSELLQRITQEQEKKLSFIEALIQQYQEQLDKSTKLVETAIQSLDEPGGATFLLTAKQLIKSIVEASKGSQLGKTEQGFENMDFFTLDLEHIADALRAIDFGTDE
modifications: MTSSL spin label (R1) on cysteine 192
notes: MuRF1 (TRIM63) helical domain, residues 155-328 of UniProtKB Q969Q1; also called E192R1; not shown: His6, N-terminal, cleaved; SUMO, N-terminal, cleaved
B7: MuRF1-HD R320C (cysteine-null background), MTSSL-labelled (domain or fragment, UniProt Q969Q1 155-328, looked up)
chain: EVAPLQSVFQGQKTELNNSISMLVAGNDRVQTIITQLEDSRRVTKENSHQVKEELSQKFDTLYAILDEKKSELLQRITQEQEKKLSFIEALIQQYQEQLDKSTKLVETAIQSLDEPGGATFLLTAKQLIKSIVEASKGSQLGKTEQGFENMDFFTLDLEHIADALCAIDFGTDE
modifications: MTSSL spin label (R1) on cysteine 320
notes: MuRF1 (TRIM63) helical domain, residues 155-328 of UniProtKB Q969Q1; also called R320R1; E320R1 (as printed once); not shown: His6, N-terminal, cleaved; SUMO, N-terminal, cleaved
B8: MuRF1-HD R230C (cysteine-null background), MTSSL-labelled (domain or fragment, UniProt Q969Q1 155-328, looked up)
chain: EVAPLQSVFQGQKTELNNSISMLVAGNDRVQTIITQLEDSRRVTKENSHQVKEELSQKFDTLYAILDEKKSELLQCITQEQEKKLSFIEALIQQYQEQLDKSTKLVETAIQSLDEPGGATFLLTAKQLIKSIVEASKGSQLGKTEQGFENMDFFTLDLEHIADALRAIDFGTDE
modifications: MTSSL spin label (R1) on cysteine 230
notes: MuRF1 (TRIM63) helical domain, residues 155-328 of UniProtKB Q969Q1; also called R230R1; not shown: His6, N-terminal, cleaved; SUMO, N-terminal, cleaved
B9: MuRF1-HD E243C (cysteine-null background), MTSSL-labelled (domain or fragment, UniProt Q969Q1 155-328, looked up)
chain: EVAPLQSVFQGQKTELNNSISMLVAGNDRVQTIITQLEDSRRVTKENSHQVKEELSQKFDTLYAILDEKKSELLQRITQEQEKKLSFICALIQQYQEQLDKSTKLVETAIQSLDEPGGATFLLTAKQLIKSIVEASKGSQLGKTEQGFENMDFFTLDLEHIADALRAIDFGTDE
modifications: MTSSL spin label (R1) on cysteine 243
notes: MuRF1 (TRIM63) helical domain, residues 155-328 of UniProtKB Q969Q1; also called E243R1; not shown: His6, N-terminal, cleaved; SUMO, N-terminal, cleaved
B10: MuRF1-HD K212C (cysteine-null background), MTSSL-labelled (domain or fragment, UniProt Q969Q1 155-328, looked up)
chain: EVAPLQSVFQGQKTELNNSISMLVAGNDRVQTIITQLEDSRRVTKENSHQVKEELSQCFDTLYAILDEKKSELLQRITQEQEKKLSFIEALIQQYQEQLDKSTKLVETAIQSLDEPGGATFLLTAKQLIKSIVEASKGSQLGKTEQGFENMDFFTLDLEHIADALRAIDFGTDE
modifications: MTSSL spin label (R1) on cysteine 212
notes: MuRF1 (TRIM63) helical domain, residues 155-328 of UniProtKB Q969Q1; also called K212R1; not shown: His6, N-terminal, cleaved; SUMO, N-terminal, cleaved
B11: MuRF1-HD F163C/L276C (in cysteine-null background) (domain or fragment, UniProt Q969Q1 155-328, looked up)
chain: EVAPLQSVCQGQKTELNNSISMLVAGNDRVQTIITQLEDSRRVTKENSHQVKEELSQKFDTLYAILDEKKSELLQRITQEQEKKLSFIEALIQQYQEQLDKSTKLVETAIQSLDEPGGATFCLTAKQLIKSIVEASKGSQLGKTEQGFENMDFFTLDLEHIADALRAIDFGTDE
modifications: disulfide bonds between the introduced cysteines after spontaneous oxidation
notes: MuRF1 (TRIM63) helical domain, residues 155-328 of UniProtKB Q969Q1; not shown: His6, N-terminal, cleaved; SUMO, N-terminal, cleaved
B12: MuRF1-HD V184C/L253C (in cysteine-null background) (domain or fragment, UniProt Q969Q1 155-328, looked up)
chain: EVAPLQSVFQGQKTELNNSISMLVAGNDRCQTIITQLEDSRRVTKENSHQVKEELSQKFDTLYAILDEKKSELLQRITQEQEKKLSFIEALIQQYQEQCDKSTKLVETAIQSLDEPGGATFLLTAKQLIKSIVEASKGSQLGKTEQGFENMDFFTLDLEHIADALRAIDFGTDE
modifications: disulfide bonds between the introduced cysteines after spontaneous oxidation
notes: as for B11
B13: MuRF1-HD S202C/Q235C (in cysteine-null background) (domain or fragment, UniProt Q969Q1 155-328, looked up)
chain: EVAPLQSVFQGQKTELNNSISMLVAGNDRVQTIITQLEDSRRVTKENCHQVKEELSQKFDTLYAILDEKKSELLQRITQECEKKLSFIEALIQQYQEQLDKSTKLVETAIQSLDEPGGATFLLTAKQLIKSIVEASKGSQLGKTEQGFENMDFFTLDLEHIADALRAIDFGTDE
modifications: disulfide bonds between the introduced cysteines after spontaneous oxidation
notes: as for B11

One data set deals with the molecule itself. Description: PELDOR (pulsed EPR, DEER); MTSSL-labelled protein, 100 to 200 uM MuRF1 dimer, deuterated Hepes pH 8.0/NaCl buffer mixed 1:1 with D8-glycerol, flash frozen; Q-band, 50 K; distances between labels across the protomers of the dimer.
For the protein B1, the binding result was “binds”.

For B2, the binding result was “binds”.

As for B3, the binding result is “binds”.

B4: the binding result was “binds”.

For B5, the binding result is listed as “binds”.

In the case of B6, the binding result was “binds”.

With B7, the binding result is “binds”.

On to B8, for which the binding result is “binds”.

In the case of B9, the binding result is reported as “binds”.

Take B10: the binding result is “binds”.

The next data set concerns the molecule itself. Nature of the data set: cross-linking; zero-length disulfide cross-linking by spontaneous oxidation: 20 uM protein reduced in 50 mM Tris-HCl pH 8.0, 100 mM NaCl, 20 mM beta-mercaptoethanol, dialysed overnight at 4 °C into the same buffer without reducing agent; non-reducing against reducing SDS-PAGE, Coomassie staining.
On to B11, for which the “stoichiometry N” value was 2.

Turning to B12, the “stoichiometry N” value was found to be 2.

As to B13, the “stoichiometry N” value was 2.
